Substitutions are numbered along the chain they refer to. In names and notes the source's numbering stands. Read-outs that look alike come from different tables or passages of the source. No end group written: not given here.

The target in assay [1] is recombinant human APRIL (human) (UniProt O75888). Description: cell-based or functional assay. Details: IC50 APRIL (Δ Parental vTD) / IC50 BAFF (Δ Parental vTD): unit not given beside the values.
The target of assay [2] is recombinant human BAFF (human) (UniProt Q9Y275). As to the kind of experiment: cell-based or functional assay. The arrangement: IC50 APRIL (Δ Parental vTD) / IC50 BAFF (Δ Parental vTD): unit not given beside the values.
Assay [3] has as its target recombinant human APRIL (human) (UniProt O75888). Description: cell-based or functional assay. The arrangement: IC50 APRIL (Δ TACI 30-110-Fc) / IC50 BAFF (Δ TACI 30-110-Fc): unit not given beside the values.
Assay [4] has as its target recombinant human BAFF (human) (UniProt Q9Y275). Description: cell-based or functional assay. The arrangement: IC50 APRIL (Δ TACI 30-110-Fc) / IC50 BAFF (Δ TACI 30-110-Fc): unit not given beside the values.
Assay [5] deals with T1, recombinant human APRIL (human, UniProt O75888 105-250, limits assumed).
T1 construct: also called human APRIL (Tonbo Biosciences)
T1 sequence (looked up): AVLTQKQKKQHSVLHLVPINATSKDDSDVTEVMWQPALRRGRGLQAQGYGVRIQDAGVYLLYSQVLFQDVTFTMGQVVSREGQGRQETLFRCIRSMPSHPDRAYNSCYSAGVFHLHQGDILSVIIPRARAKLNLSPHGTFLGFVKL
Description: told in the description with reference to Example 8 (Jurkat/NF-κB/TACI reporter blockade).

The target in assay [6] is T2, recombinant human BAFF (human, UniProt Q9Y275 134-285).
T2 construct: also called human BAFF (BioLegend)
The assay is described as above.

Assay [7] addresses T3, recombinant human APRIL (human, UniProt O75888 105-250, limits assumed).
T3 sequence (looked up): T1 sequence (looked up)
As to the kind of experiment: cell-based or functional assay.

Assay [8] deals with T4, recombinant human BAFF (human, UniProt Q9Y275 134-285). Description: cell-based or functional assay.
Assay [9] deals with T3, recombinant human APRIL. Description: cell-based or functional assay. This is another data set of the same source.
For assay [10], the target named is T4, recombinant human BAFF. As to the kind of experiment: cell-based or functional assay. This is another data set of the same source.
A further assay deals with T5, human CD80 (human, UniProt P33681 35-288).
T5 sequence (looked up): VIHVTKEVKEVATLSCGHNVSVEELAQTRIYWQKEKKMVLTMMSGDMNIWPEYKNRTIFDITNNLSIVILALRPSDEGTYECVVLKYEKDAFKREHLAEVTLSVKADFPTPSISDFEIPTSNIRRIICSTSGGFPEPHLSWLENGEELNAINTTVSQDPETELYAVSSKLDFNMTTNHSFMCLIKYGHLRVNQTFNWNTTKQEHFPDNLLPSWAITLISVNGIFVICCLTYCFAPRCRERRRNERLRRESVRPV
As to the kind of experiment: cell-based or functional assay.

Another assay deals with T6, human CD86 (human, UniProt P42081 24-329).
T6 sequence (looked up): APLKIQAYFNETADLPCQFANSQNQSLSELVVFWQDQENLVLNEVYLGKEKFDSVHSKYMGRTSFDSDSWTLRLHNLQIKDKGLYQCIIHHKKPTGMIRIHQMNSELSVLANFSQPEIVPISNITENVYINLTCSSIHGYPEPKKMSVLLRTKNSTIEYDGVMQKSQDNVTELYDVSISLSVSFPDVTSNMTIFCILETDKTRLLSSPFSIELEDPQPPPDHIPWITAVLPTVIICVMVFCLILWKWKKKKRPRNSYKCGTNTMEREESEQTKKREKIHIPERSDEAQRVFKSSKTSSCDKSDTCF
Description: cell-based or functional assay.

The target of another assay is T7, human ICOSL (human, UniProt O75144 19-302).
T7 construct: whole, on cells
T7 sequence (looked up): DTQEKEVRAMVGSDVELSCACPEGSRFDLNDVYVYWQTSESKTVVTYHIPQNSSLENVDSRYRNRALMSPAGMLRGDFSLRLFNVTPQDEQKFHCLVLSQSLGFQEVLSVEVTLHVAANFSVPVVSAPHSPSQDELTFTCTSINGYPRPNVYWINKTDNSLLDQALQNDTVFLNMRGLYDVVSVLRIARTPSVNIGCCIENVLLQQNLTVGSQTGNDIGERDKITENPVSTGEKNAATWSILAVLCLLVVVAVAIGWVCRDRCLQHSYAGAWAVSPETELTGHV
Description: flow cytometry, cells expressing human ICOSL. A general note: In flow cytometry, cells or beads pass a laser one at a time.

As for BCMA WT-Fc (Fc fusion), in assay [1], the IC50 (nM) APRIL is 1.03 nM and the IC50 APRIL (Δ Parental vTD) amounted to 1. In [2], the IC50 (nM) BAFF worked out at 0.995 nM and the IC50 BAFF (Δ Parental vTD) turned out to be 1. In [3], the IC50 (nM) APRIL turned out to be 183 nM and the IC50 APRIL (Δ TACI 30-110-Fc) is 0.05. In assay [4], the IC50 (nM) BAFF was 823 nM and the IC50 BAFF (Δ TACI 30-110-Fc) turned out to be 0.14.

B1: 528 TACI CRD2-Fc (Fc fusion, not shown: a dimerising Fc or GST)
chain: SLSCRKEQGKFYDHLLRDCISCASICGQHPKQCAYFCENKLRS
modifications: cysteine pairing not given here; also: Fc fusion, linker and Fc not given here
notes: Fc fusion; also called WT TACI-Fc containing only the CRD2 domain of TACI; TACI 68-110 Fc
For B1, the binding result with recombinant human APRIL [5] and in the assay with recombinant human BAFF [6] was “binds” in each case.

B2: CTLA-4 186 GSG4S Fc (G4S)4 TACI 541 (Fc fusion)
chain: KAMHVAQPAVVLASSRGIASFVCEYASPWKATEVRVTVLRQADSQVTEVCAATYMMGNELTFLDDSICTGTSSGNQVNLTIQGLRAMDTGLYICKVEQMYPPPYLLGIGNGTQIYVIDPEPCPDSDGSGGGGSEPKSSDKTHTCPPCPAPEAEGAPSVFLFPPKPKDTLMISRTPEVTCVVVDVSHEDPEVKFNWYVDGVEVHNAKTKPREEQYNSTYRVVSVLTVLHQDWLNGKEYKCKVSNKALPAPIEKTISKAKGQPREPQVYTLPPSRDELTKNQVSLTCLVKGFYPSDIAVEWESNGQPENNYKTTPPVLDSDGSFFLYSKLTVDKSRWQQGNVFSCSVMHEALHNHYTQKSLSLSPGGGGGSGGGGSGGGGSGGGGSSLSCRKEQGEYYDHLLRDCISCASICGQHPKQCADFCENKLRS
On to B2, for which the “IC50 (nM) APRIL” value in the assay with recombinant human APRIL [7] is 1.56 nM. Further, the “IC50 (nM) BAFF” value with recombinant human BAFF [8] is 0.103 nM. In the assay with recombinant human APRIL [9], the “IC50 (nM) APRIL” value was 272 nM and the “IC50 APRIL (Δ TACI 30-110-Fc)” value was determined as 0.07 ratio. Moreover, in the assay with recombinant human BAFF [10], the “IC50 (nM) BAFF” value was found to be 1260 nM and the “IC50 BAFF (Δ TACI 30-110-Fc)” value came out at 0.22 ratio. In addition, in the assay with human CD80, the “CD80 IC50” value was determined as 56.9 nM and the “CD80 IC50 (Δ Parental CTLA-4)” value was found to be 1.7 ratio. Besides, in the assay with human CD86, the “CD86 IC50” value was determined as 10.2 nM and the “CD86 IC50 (Δ Parental CTLA-4)” value worked out at 1.2 ratio.

B3: TACI WT Fc (Fc fusion, not shown: a dimerising Fc or GST)
chain: VAMRSCPEEQYWDPLLGTCMSCKTICNHQSQRTCAAFCRSLSCRKEQGKFYDHLLRDCISCASICGQHPKQCAYFCENKLRS
Consider B3, for which, in assay [1], the IC50 (nM) APRIL stood at 9.17 nM and the IC50 APRIL (Δ Parental vTD) came out at 1. Moreover, in [2], the IC50 (nM) BAFF is 2.58 nM and the IC50 BAFF (Δ Parental vTD) stood at 1.

B4: variant CTLA-4 ECD-Fc G29W/L98Q/Y105L (Fc fusion)
chain: KAMHVAQPAVVLASSRGIASFVCEYASPWKATEVRVTVLRQADSQVTEVCAATYMMGNELTFLDDSICTGTSSGNQVNLTIQGLRAMDTGLYICKVEQMYPPPYLLGIGNGTQIYVIDPEPCPDSDGSGGGGSEPKSSDKTHTCPPCPAPEAEGAPSVFLFPPKPKDTLMISRTPEVTCVVVDVSHEDPEVKFNWYVDGVEVHNAKTKPREEQYNSTYRVVSVLTVLHQDWLNGKEYKCKVSNKALPAPIEKTISKAKGQPREPQVYTLPPSRDELTKNQVSLTCLVKGFYPSDIAVEWESNGQPENNYKTTPPVLDSDGSFFLYSKLTVDKSRWQQGNVFSCSVMHEALHNHYTQKSLSLSPG
As to B4, in the assay with human CD80, the “CD80 IC50” value is 33.6 nM and the “CD80 IC50 (Δ Parental CTLA-4)” value was 1 ratio. In addition, in the assay with human CD86, the “CD86 IC50” value came to 8.2 nM and the “CD86 IC50 (Δ Parental CTLA-4)” value is 1 ratio. For the same molecule, the MFI with human ICOSL came to 570 MFI.

B5: variant CTLA-4 ECD-Fc M56T/L98Q/Y105L (Fc fusion)
chain: B4 chain with W29G, M56T
On to B5, for which the MFI with human ICOSL turned out to be 700 MFI.

The values are drawn from patent US20230241168A1 (ALPINE IMMUNE SCIENCES, published 2023).
